In article PMC7041687 (The Journal of Cell Biology, 2019):
Changes are numbered by the printed parent chain. Ends that are not written are not given here.

T1: Ana2 S38A full length, nonphosphorylated (purified) (Drosophila, UniProt Q9XZ31 1-420, S38A)
T1 sequence (looked up): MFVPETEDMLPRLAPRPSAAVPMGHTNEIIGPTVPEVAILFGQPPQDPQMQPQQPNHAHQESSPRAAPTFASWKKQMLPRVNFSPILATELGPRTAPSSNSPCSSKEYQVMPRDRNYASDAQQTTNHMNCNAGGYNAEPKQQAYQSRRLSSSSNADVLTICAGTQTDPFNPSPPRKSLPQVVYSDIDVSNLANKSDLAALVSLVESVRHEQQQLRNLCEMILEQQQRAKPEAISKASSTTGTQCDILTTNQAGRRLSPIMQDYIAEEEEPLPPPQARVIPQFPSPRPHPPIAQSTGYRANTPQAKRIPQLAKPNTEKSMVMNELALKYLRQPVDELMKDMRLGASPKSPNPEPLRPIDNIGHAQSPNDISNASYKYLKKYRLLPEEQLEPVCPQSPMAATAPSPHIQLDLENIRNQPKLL

T2: Ana2 full length, wild type, nonphosphorylated (purified) (Drosophila, UniProt Q9XZ31 1-420)
T2 sequence (looked up): T1 sequence (looked up) with A38S

B1: Ana2 1–60 (amino acids 1–60), nonphosphorylated (domain or fragment, Drosophila, UniProt Q9XZ31 1-60, looked up)
chain: MFVPETEDMLPRLAPRPSAAVPMGHTNEIIGPTVPEVSILFGQPPQDPQMQPQQPNHAHQ
B2: Ana2 1–60 prephosphorylated with purified Plk4 (domain or fragment, Drosophila, UniProt Q9XZ31 1-60, looked up)
chain: B1 chain
modifications: also: prephosphorylated by Plk4, sites not listed
B3: His6-Thrombin-Sas4-606 (Sas4 amino acids 606–901) (domain or fragment, Drosophila, UniProt Q9VI72 606-901, looked up)
chain: RNIARLAPKVLPSATMSDILDENGRRTQSLDGTAGKPAKQREAQNRRQSSGSAQVRSRSRSLSRNKKTPYALDESYASSSSVESEEVQPPVTAPKAATPPPAANSSSDFKREITNADGSKDIWYPNGNLKKISADGMNLRMLYFNKDIKETNIREGTVKYYYAETNTWHTSYLDGLEILEFPNGQTEHRRKDGTVEIHFPNNSIKIVDPSDTEKLEEWRYADGTHLVQLRNGDKILNLPNGQKEIHTKLNKRREYPDGTVKLVYPDGSQETRYSNGRVRLKDKDGKLIMDTDYAKY

Key:
Assay in all cases: BLI
[1] = target: B3
[2] = target: T1, Ana2 S38A full length, …
[3] = target: T2, Ana2 full length, wild type, …

Row | Kd [1] [nM] | Kd [2] [nM] | Kd [3] [nM] | Binder
1 | 134 |  |  | B1
2 | 72 |  |  | B2
3 |  | 31 | 26 | B3
